Data: PMC6331215 (Journal of molecular biology, 2018)

B1: M. marinum EspG1 (natural protein)
chain: MTGPLATGRAGTGDDVVGVEVTIDGMLVIADRLHLVDFPVTLGIRPNIPQEDLREIVWDQVARDLTAQGVLDHNGQPHPAVAAMVDTLSRADRTLEGRWWRRDVGGVMVRFVVCRKGERHVIAVRDGDMLVLQLVAPRVGLAGMVTAVLGTAEPANVEPLTGIASELGECTNAAQLTRYGLTPTTARLYTEIVTNPKSWVEIVASERHPGGTTTHTKAAAGVLDSAHGRLVSLPRQVGGELYGSFLPGTEQNLQRALDSLLELLPSGSWLDRADATARG

What was measured:
[1] = target: M. marinum EspG3 (construct for SAXS) (M. marinum E11) (UniProt B2HNX0); assay: SAXS
SAXS = target: the molecule itself; assay: SAXS

| Molecule | dimeric fraction at 4.0 mg/ml (wing-shaped dimer model, 4L4W) [1] | dimeric fraction at 6.0 mg/ml (wing-shaped dimer model, 4L4W) [1] | stoichiometry N (SAXS) |
| --- | --- | --- | --- |
| M. marinum EspG3 (construct for SAXS) (from UniProt B2HNX0 1-298) (natural protein) | 1 | 1 | – |
| B1 | – | – | 2 |
